Experimental data from patent US7326418B2, “Identification of novel factors that block programmed cell death or apoptosis by targeting JNK” (University of Chicago, priority 2001, dated 2008).

Assays:
ASK1 = target: T1, ASK1 (Homo sapiens, UniProt Q99683); assay: GST pull-down, GST-Gadd45β beads with in vitro translated 35S-labeled ASK1; type: binding; design: plasmids encoding full-length (FL) human ASK1, MEKK4, JNKK1, and JNKK2; made in house; host or cells: TNT coupled reticulocyte lysate (Promega), in vitro transcription/translation from pBS
T1 sequence (Q99683 1-1374): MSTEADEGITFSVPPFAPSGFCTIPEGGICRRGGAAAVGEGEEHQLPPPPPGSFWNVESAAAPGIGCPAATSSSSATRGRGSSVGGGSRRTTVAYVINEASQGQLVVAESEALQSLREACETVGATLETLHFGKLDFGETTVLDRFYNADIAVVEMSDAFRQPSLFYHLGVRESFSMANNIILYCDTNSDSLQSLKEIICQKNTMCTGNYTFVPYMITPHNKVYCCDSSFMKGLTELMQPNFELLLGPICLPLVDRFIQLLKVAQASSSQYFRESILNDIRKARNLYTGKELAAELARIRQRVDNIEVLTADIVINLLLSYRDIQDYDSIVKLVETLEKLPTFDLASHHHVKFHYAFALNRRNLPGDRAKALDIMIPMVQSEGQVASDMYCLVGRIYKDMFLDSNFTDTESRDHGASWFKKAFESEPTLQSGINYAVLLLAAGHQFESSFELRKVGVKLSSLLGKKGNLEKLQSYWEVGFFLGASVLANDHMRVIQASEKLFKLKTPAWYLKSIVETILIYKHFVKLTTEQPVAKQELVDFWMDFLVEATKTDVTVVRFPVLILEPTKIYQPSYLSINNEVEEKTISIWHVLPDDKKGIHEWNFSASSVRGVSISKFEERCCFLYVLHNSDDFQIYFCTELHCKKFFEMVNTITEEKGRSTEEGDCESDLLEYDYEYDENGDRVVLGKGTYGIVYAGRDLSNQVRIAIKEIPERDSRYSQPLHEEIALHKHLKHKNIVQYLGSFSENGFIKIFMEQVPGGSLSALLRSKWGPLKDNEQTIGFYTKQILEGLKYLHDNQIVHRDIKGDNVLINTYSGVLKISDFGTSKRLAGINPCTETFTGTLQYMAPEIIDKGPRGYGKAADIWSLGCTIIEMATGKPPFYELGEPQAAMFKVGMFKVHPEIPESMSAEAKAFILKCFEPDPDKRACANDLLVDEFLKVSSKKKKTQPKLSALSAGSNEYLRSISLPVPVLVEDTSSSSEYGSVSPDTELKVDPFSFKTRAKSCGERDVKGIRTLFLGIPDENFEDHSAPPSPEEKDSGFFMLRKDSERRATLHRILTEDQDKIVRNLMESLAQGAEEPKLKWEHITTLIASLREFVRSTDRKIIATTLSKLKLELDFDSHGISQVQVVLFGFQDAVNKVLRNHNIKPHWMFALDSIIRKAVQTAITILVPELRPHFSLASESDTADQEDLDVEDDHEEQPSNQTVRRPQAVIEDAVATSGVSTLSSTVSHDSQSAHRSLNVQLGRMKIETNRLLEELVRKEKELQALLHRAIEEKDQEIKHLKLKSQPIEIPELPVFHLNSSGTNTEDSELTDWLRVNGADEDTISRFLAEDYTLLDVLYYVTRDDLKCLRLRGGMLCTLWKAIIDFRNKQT
Experimental: (§1) To confirm the above interactions, in vitro, GST pull-down experiments were performed. pBluescript (pBS) plasmids encoding full-length (FL) human ASK1, MEKK4, JNKK1, and JNKK2, or polypeptides derived from the amino- or carboxy-terminal portions of ASK1 (i.e. N-ASK1, spanning from amino acids 1 to 756, and C-ASK1, spanning from amino acids 648 to 1375) were transcribed and translated in vitro using the TNT coupled retyculocyte lysate system (Promega) in the presence of ^35S-methionine. 5 μl of each translation mix were incubated, in vitro, with sepharose-4B beads that had been coated with either purified glutathione-S-transferase (GST) polypeptides or GST-Gadd45β proteins. The latter proteins contained FL murine Gadd45β directly fused to GST. Binding assays were performed according to standard procedures, and ^35S-labeled proteins that bound to beads, as well as 2 μl of each in vitro translation mix (input), were then resolved by SDS polyacrylamide gel electrophoresis. Asterisks indicate the intact translated products. […] Thus, GST pull-down experiments confirmed the strong interaction between Gadd45β and JNKK2 observed in vivo, as well as the weaker interactions of Gadd45β with other kinases in the JNK pathway. These assays also uncovered a weak association between Gadd45β and JNKK1. […]

MEKK4 = target: T2, MEKK4 (Mus musculus, UniProt O08648); assay: GST pull-down, GST-Gadd45β beads with in vitro translated 35S-labeled MEKK4; type: binding, murine
T2 construct: plasmids encoding full-length (FL) human ASK1, MEKK4, JNKK1, and JNKK2; made in house; host or cells: TNT coupled reticulocyte lysate (Promega), in vitro transcription/translation from pBS
Experimental: as §1

T2 sequence (O08648 whole entry): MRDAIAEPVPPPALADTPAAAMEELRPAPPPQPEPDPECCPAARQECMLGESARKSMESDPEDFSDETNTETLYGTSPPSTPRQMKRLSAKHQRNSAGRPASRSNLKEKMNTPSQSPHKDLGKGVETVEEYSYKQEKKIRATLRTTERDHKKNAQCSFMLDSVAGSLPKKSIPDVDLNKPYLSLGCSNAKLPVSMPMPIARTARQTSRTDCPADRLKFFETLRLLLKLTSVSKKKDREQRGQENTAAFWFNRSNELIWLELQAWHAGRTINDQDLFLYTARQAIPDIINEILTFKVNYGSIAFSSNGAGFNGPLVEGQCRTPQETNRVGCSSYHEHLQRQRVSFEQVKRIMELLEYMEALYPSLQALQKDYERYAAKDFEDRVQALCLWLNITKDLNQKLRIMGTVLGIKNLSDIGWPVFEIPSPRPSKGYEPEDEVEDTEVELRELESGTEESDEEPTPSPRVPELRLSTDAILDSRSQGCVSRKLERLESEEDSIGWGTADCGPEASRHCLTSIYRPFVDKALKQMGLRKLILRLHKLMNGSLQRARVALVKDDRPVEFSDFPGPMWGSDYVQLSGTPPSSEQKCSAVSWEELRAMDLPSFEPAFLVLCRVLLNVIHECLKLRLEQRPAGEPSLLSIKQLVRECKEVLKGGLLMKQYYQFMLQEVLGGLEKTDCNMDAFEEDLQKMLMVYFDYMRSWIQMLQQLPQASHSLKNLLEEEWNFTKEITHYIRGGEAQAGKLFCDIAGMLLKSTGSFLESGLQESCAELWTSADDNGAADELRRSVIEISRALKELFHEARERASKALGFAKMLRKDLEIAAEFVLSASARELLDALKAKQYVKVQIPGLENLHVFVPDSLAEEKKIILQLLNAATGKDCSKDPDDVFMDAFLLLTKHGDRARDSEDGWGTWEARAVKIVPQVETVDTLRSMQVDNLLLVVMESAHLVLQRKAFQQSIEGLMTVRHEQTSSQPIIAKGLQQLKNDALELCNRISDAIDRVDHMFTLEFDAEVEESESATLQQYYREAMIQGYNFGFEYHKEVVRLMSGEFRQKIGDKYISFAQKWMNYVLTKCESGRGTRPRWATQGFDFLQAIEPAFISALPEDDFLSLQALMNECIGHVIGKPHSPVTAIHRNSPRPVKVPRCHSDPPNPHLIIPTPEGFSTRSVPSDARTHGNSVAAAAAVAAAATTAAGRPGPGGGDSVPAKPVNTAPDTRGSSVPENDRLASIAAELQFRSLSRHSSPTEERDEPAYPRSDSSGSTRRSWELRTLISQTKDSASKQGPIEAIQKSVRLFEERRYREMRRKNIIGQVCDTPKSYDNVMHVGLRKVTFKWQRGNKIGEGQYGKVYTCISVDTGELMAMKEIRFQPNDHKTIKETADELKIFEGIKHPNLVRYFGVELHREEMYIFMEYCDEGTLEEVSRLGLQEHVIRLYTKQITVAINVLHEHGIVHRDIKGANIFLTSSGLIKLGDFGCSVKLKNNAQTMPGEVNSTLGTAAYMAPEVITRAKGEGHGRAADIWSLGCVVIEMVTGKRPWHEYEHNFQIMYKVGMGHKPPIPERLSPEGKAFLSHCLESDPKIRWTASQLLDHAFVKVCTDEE

B1: GST-Gadd45β: full-length murine Gadd45β directly fused to GST, purified from E. coli (protein)
chain: MTLEELVASDNAVQKMQAVTAAVEQLLVAAQRQDRLTVGVYEAAKLMNVDPDSVVLCLLAIDEEEEDDIALQIHFTLIQSFCCDNDIDIVRVSGMQRLAQLLGEPAETLGTTEARDLHCLLVTNCHTDSWKSQGLVEVASYCEESRGNNQWVPYISLEER
modifications: left off: a dimerising Fc or GST
notes: full-length murine Gadd45β directly fused to GST, purified from E. coli
Which results are given for B1?
association with ASK1 (ASK1): less avidly than with JNKK2; association with MEKK4 (MEKK4): less avidly than with JNKK2
